The values below come from PMC12677907.

For this assay, the target named is BoABA2, purified protein (GST pull-down and enzyme assay) (cabbage (Brassica oleracea var. capitata)).

In the case of “BoCML37, purified protein (GST pull-down and enzyme assay) (natural protein)”, the BoABA2 catalytic activity in converting xanthoxin to abscisic aldehyde in vitro, co-incubated with BoCML37 in the presence of Ca2+, relative to BoABA2 alone came out at 3.88 fold.
